In patent publication US20210388087A1:
One block for each binder: values may come before it.

Target: Human CD137 ECD (human)
Test: single mutant vs template dBBDu183H

Chain of Human CD137 ECD (human) (chain, as listed by the source limits assumed): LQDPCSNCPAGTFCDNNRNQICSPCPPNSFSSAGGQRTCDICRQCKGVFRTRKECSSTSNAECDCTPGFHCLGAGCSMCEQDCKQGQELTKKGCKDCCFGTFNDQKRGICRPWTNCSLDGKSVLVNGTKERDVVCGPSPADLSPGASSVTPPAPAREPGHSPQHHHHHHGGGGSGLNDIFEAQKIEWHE

fold change of affinity: 0 fold
B2: H183/L072 VH W33K (antibody, name in Kabat numbering, V domains shown)
VH: QVQLVESGGGLVQPGRSLRLSCAASGFTFSNAKMHWVRQAPGKGLEWVAQIKDKGNAYAAYYAPSVKGRFTISRDDSKNSIYLQMNSLKTEDTAVYYCHYVHYASASTVLPAFGVDAWGQGTTVTVSS
VL: DIVMTQSPLSLPVTPGEPASISCQASQELVHMNRNTYLHWYQQKPGQAPRLLIYKVSNRFPGVPDRFSGSGSGTDFTLKISRVEAEDVGVYYCAQGTSVPFTFGQGTKLEIK

fold change of affinity: 0 fold
B6: H183/L072 VH N53H (antibody, name in Kabat numbering, V domains shown)
VH: QVQLVESGGGLVQPGRSLRLSCAASGFTFSNAWMHWVRQAPGKGLEWVAQIKDKGHAYAAYYAPSVKGRFTISRDDSKNSIYLQMNSLKTEDTAVYYCHYVHYASASTVLPAFGVDAWGQGTTVTVSS
VL: DIVMTQSPLSLPVTPGEPASISCQASQELVHMNRNTYLHWYQQKPGQAPRLLIYKVSNRFPGVPDRFSGSGSGTDFTLKISRVEAEDVGVYYCAQGTSVPFTFGQGTKLEIK

fold change of affinity: 0 fold
B11: H183/L072 VH M34K (antibody, name in Kabat numbering, V domains shown)
VH: QVQLVESGGGLVQPGRSLRLSCAASGFTFSNAWKHWVRQAPGKGLEWVAQIKDKGNAYAAYYAPSVKGRFTISRDDSKNSIYLQMNSLKTEDTAVYYCHYVHYASASTVLPAFGVDAWGQGTTVTVSS
VL: DIVMTQSPLSLPVTPGEPASISCQASQELVHMNRNTYLHWYQQKPGQAPRLLIYKVSNRFPGVPDRFSGSGSGTDFTLKISRVEAEDVGVYYCAQGTSVPFTFGQGTKLEIK

fold change of affinity: 0 fold
B12: H183/L072 VH M34R (antibody, name in Kabat numbering, V domains shown)
VH: QVQLVESGGGLVQPGRSLRLSCAASGFTFSNAWRHWVRQAPGKGLEWVAQIKDKGNAYAAYYAPSVKGRFTISRDDSKNSIYLQMNSLKTEDTAVYYCHYVHYASASTVLPAFGVDAWGQGTTVTVSS
VL: DIVMTQSPLSLPVTPGEPASISCQASQELVHMNRNTYLHWYQQKPGQAPRLLIYKVSNRFPGVPDRFSGSGSGTDFTLKISRVEAEDVGVYYCAQGTSVPFTFGQGTKLEIK

fold change of affinity: 0 fold
B13: H183/L072 VH W33R (antibody, name in Kabat numbering, V domains shown)
VH: QVQLVESGGGLVQPGRSLRLSCAASGFTFSNARMHWVRQAPGKGLEWVAQIKDKGNAYAAYYAPSVKGRFTISRDDSKNSIYLQMNSLKTEDTAVYYCHYVHYASASTVLPAFGVDAWGQGTTVTVSS
VL: DIVMTQSPLSLPVTPGEPASISCQASQELVHMNRNTYLHWYQQKPGQAPRLLIYKVSNRFPGVPDRFSGSGSGTDFTLKISRVEAEDVGVYYCAQGTSVPFTFGQGTKLEIK

fold change of affinity: 0 fold
B14: H183/L072 VH N53K (antibody, name in Kabat numbering, V domains shown)
VH: QVQLVESGGGLVQPGRSLRLSCAASGFTFSNAWMHWVRQAPGKGLEWVAQIKDKGKAYAAYYAPSVKGRFTISRDDSKNSIYLQMNSLKTEDTAVYYCHYVHYASASTVLPAFGVDAWGQGTTVTVSS
VL: DIVMTQSPLSLPVTPGEPASISCQASQELVHMNRNTYLHWYQQKPGQAPRLLIYKVSNRFPGVPDRFSGSGSGTDFTLKISRVEAEDVGVYYCAQGTSVPFTFGQGTKLEIK

fold change of affinity: 0 fold
B15: H183/L072 VH N31K (antibody, name in Kabat numbering, V domains shown)
VH: QVQLVESGGGLVQPGRSLRLSCAASGFTFSKAWMHWVRQAPGKGLEWVAQIKDKGNAYAAYYAPSVKGRFTISRDDSKNSIYLQMNSLKTEDTAVYYCHYVHYASASTVLPAFGVDAWGQGTTVTVSS
VL: DIVMTQSPLSLPVTPGEPASISCQASQELVHMNRNTYLHWYQQKPGQAPRLLIYKVSNRFPGVPDRFSGSGSGTDFTLKISRVEAEDVGVYYCAQGTSVPFTFGQGTKLEIK

fold change of affinity: 0 fold
B16: H183/L072 VH W33H (antibody, name in Kabat numbering, V domains shown)
VH: QVQLVESGGGLVQPGRSLRLSCAASGFTFSNAHMHWVRQAPGKGLEWVAQIKDKGNAYAAYYAPSVKGRFTISRDDSKNSIYLQMNSLKTEDTAVYYCHYVHYASASTVLPAFGVDAWGQGTTVTVSS
VL: DIVMTQSPLSLPVTPGEPASISCQASQELVHMNRNTYLHWYQQKPGQAPRLLIYKVSNRFPGVPDRFSGSGSGTDFTLKISRVEAEDVGVYYCAQGTSVPFTFGQGTKLEIK

fold change of affinity: 0 fold
B18: H183/L072 VH N53E (antibody, name in Kabat numbering, V domains shown)
VH: QVQLVESGGGLVQPGRSLRLSCAASGFTFSNAWMHWVRQAPGKGLEWVAQIKDKGEAYAAYYAPSVKGRFTISRDDSKNSIYLQMNSLKTEDTAVYYCHYVHYASASTVLPAFGVDAWGQGTTVTVSS
VL: DIVMTQSPLSLPVTPGEPASISCQASQELVHMNRNTYLHWYQQKPGQAPRLLIYKVSNRFPGVPDRFSGSGSGTDFTLKISRVEAEDVGVYYCAQGTSVPFTFGQGTKLEIK

fold change of affinity: 0 fold
B21: H183/L072 VH N31R (antibody, name in Kabat numbering, V domains shown)
VH: QVQLVESGGGLVQPGRSLRLSCAASGFTFSRAWMHWVRQAPGKGLEWVAQIKDKGNAYAAYYAPSVKGRFTISRDDSKNSIYLQMNSLKTEDTAVYYCHYVHYASASTVLPAFGVDAWGQGTTVTVSS
VL: DIVMTQSPLSLPVTPGEPASISCQASQELVHMNRNTYLHWYQQKPGQAPRLLIYKVSNRFPGVPDRFSGSGSGTDFTLKISRVEAEDVGVYYCAQGTSVPFTFGQGTKLEIK

The remaining lines, values behind:

B1: H183/L072 VH K52E (antibody, name in Kabat numbering, V domains shown)
VH: QVQLVESGGGLVQPGRSLRLSCAASGFTFSNAWMHWVRQAPGKGLEWVAQIEDKGNAYAAYYAPSVKGRFTISRDDSKNSIYLQMNSLKTEDTAVYYCHYVHYASASTVLPAFGVDAWGQGTTVTVSS
VL: DIVMTQSPLSLPVTPGEPASISCQASQELVHMNRNTYLHWYQQKPGQAPRLLIYKVSNRFPGVPDRFSGSGSGTDFTLKISRVEAEDVGVYYCAQGTSVPFTFGQGTKLEIK
fold change of affinity: 0 fold

B3: H183/L072 VH G26K (antibody, name in Kabat numbering, V domains shown)
VH: QVQLVESGGGLVQPGRSLRLSCAASKFTFSNAWMHWVRQAPGKGLEWVAQIKDKGNAYAAYYAPSVKGRFTISRDDSKNSIYLQMNSLKTEDTAVYYCHYVHYASASTVLPAFGVDAWGQGTTVTVSS
VL: DIVMTQSPLSLPVTPGEPASISCQASQELVHMNRNTYLHWYQQKPGQAPRLLIYKVSNRFPGVPDRFSGSGSGTDFTLKISRVEAEDVGVYYCAQGTSVPFTFGQGTKLEIK
fold change of affinity: 0 fold

B4: H183/L072 VH D52aH (antibody, name in Kabat numbering, V domains shown)
VH: QVQLVESGGGLVQPGRSLRLSCAASGFTFSNAWMHWVRQAPGKGLEWVAQIKHKGNAYAAYYAPSVKGRFTISRDDSKNSIYLQMNSLKTEDTAVYYCHYVHYASASTVLPAFGVDAWGQGTTVTVSS
VL: DIVMTQSPLSLPVTPGEPASISCQASQELVHMNRNTYLHWYQQKPGQAPRLLIYKVSNRFPGVPDRFSGSGSGTDFTLKISRVEAEDVGVYYCAQGTSVPFTFGQGTKLEIK
fold change of affinity: 0 fold

B5: H183/L072 VH F29K (antibody, name in Kabat numbering, V domains shown)
VH: QVQLVESGGGLVQPGRSLRLSCAASGFTKSNAWMHWVRQAPGKGLEWVAQIKDKGNAYAAYYAPSVKGRFTISRDDSKNSIYLQMNSLKTEDTAVYYCHYVHYASASTVLPAFGVDAWGQGTTVTVSS
VL: DIVMTQSPLSLPVTPGEPASISCQASQELVHMNRNTYLHWYQQKPGQAPRLLIYKVSNRFPGVPDRFSGSGSGTDFTLKISRVEAEDVGVYYCAQGTSVPFTFGQGTKLEIK
fold change of affinity: 0 fold

B7: H183/L072 VH H35K (antibody, name in Kabat numbering, V domains shown)
VH: QVQLVESGGGLVQPGRSLRLSCAASGFTFSNAWMKWVRQAPGKGLEWVAQIKDKGNAYAAYYAPSVKGRFTISRDDSKNSIYLQMNSLKTEDTAVYYCHYVHYASASTVLPAFGVDAWGQGTTVTVSS
VL: DIVMTQSPLSLPVTPGEPASISCQASQELVHMNRNTYLHWYQQKPGQAPRLLIYKVSNRFPGVPDRFSGSGSGTDFTLKISRVEAEDVGVYYCAQGTSVPFTFGQGTKLEIK
fold change of affinity: 0 fold

B8: H183/L072 VH F29H (antibody, name in Kabat numbering, V domains shown)
VH: QVQLVESGGGLVQPGRSLRLSCAASGFTHSNAWMHWVRQAPGKGLEWVAQIKDKGNAYAAYYAPSVKGRFTISRDDSKNSIYLQMNSLKTEDTAVYYCHYVHYASASTVLPAFGVDAWGQGTTVTVSS
VL: DIVMTQSPLSLPVTPGEPASISCQASQELVHMNRNTYLHWYQQKPGQAPRLLIYKVSNRFPGVPDRFSGSGSGTDFTLKISRVEAEDVGVYYCAQGTSVPFTFGQGTKLEIK
fold change of affinity: 0 fold

B9: H183/L072 VH K52H (antibody, name in Kabat numbering, V domains shown)
VH: QVQLVESGGGLVQPGRSLRLSCAASGFTFSNAWMHWVRQAPGKGLEWVAQIHDKGNAYAAYYAPSVKGRFTISRDDSKNSIYLQMNSLKTEDTAVYYCHYVHYASASTVLPAFGVDAWGQGTTVTVSS
VL: DIVMTQSPLSLPVTPGEPASISCQASQELVHMNRNTYLHWYQQKPGQAPRLLIYKVSNRFPGVPDRFSGSGSGTDFTLKISRVEAEDVGVYYCAQGTSVPFTFGQGTKLEIK
fold change of affinity: 0 fold

B10: H183/L072 VH I51H (antibody, name in Kabat numbering, V domains shown)
VH: QVQLVESGGGLVQPGRSLRLSCAASGFTFSNAWMHWVRQAPGKGLEWVAQHKDKGNAYAAYYAPSVKGRFTISRDDSKNSIYLQMNSLKTEDTAVYYCHYVHYASASTVLPAFGVDAWGQGTTVTVSS
VL: DIVMTQSPLSLPVTPGEPASISCQASQELVHMNRNTYLHWYQQKPGQAPRLLIYKVSNRFPGVPDRFSGSGSGTDFTLKISRVEAEDVGVYYCAQGTSVPFTFGQGTKLEIK
fold change of affinity: 0 fold

B17: H183/L072 VH F29R (antibody, name in Kabat numbering, V domains shown)
VH: QVQLVESGGGLVQPGRSLRLSCAASGFTRSNAWMHWVRQAPGKGLEWVAQIKDKGNAYAAYYAPSVKGRFTISRDDSKNSIYLQMNSLKTEDTAVYYCHYVHYASASTVLPAFGVDAWGQGTTVTVSS
VL: DIVMTQSPLSLPVTPGEPASISCQASQELVHMNRNTYLHWYQQKPGQAPRLLIYKVSNRFPGVPDRFSGSGSGTDFTLKISRVEAEDVGVYYCAQGTSVPFTFGQGTKLEIK
fold change of affinity: 0 fold

B19: H183/L072 VH D52aK (antibody, name in Kabat numbering, V domains shown)
VH: QVQLVESGGGLVQPGRSLRLSCAASGFTFSNAWMHWVRQAPGKGLEWVAQIKKKGNAYAAYYAPSVKGRFTISRDDSKNSIYLQMNSLKTEDTAVYYCHYVHYASASTVLPAFGVDAWGQGTTVTVSS
VL: DIVMTQSPLSLPVTPGEPASISCQASQELVHMNRNTYLHWYQQKPGQAPRLLIYKVSNRFPGVPDRFSGSGSGTDFTLKISRVEAEDVGVYYCAQGTSVPFTFGQGTKLEIK
fold change of affinity: 0 fold

B20: H183/L072 VH D52aE (antibody, name in Kabat numbering, V domains shown)
VH: QVQLVESGGGLVQPGRSLRLSCAASGFTFSNAWMHWVRQAPGKGLEWVAQIKEKGNAYAAYYAPSVKGRFTISRDDSKNSIYLQMNSLKTEDTAVYYCHYVHYASASTVLPAFGVDAWGQGTTVTVSS
VL: DIVMTQSPLSLPVTPGEPASISCQASQELVHMNRNTYLHWYQQKPGQAPRLLIYKVSNRFPGVPDRFSGSGSGTDFTLKISRVEAEDVGVYYCAQGTSVPFTFGQGTKLEIK
fold change of affinity: 0 fold
